The values that follow come from article PMC10686824, “Bacterial cGAS senses a viral RNA to initiate immunity”.

For this series, the target named is T1, His6-MBP-Ssc-CdnE03 (UniProt P0DXA6 1-324).
T1 sequence: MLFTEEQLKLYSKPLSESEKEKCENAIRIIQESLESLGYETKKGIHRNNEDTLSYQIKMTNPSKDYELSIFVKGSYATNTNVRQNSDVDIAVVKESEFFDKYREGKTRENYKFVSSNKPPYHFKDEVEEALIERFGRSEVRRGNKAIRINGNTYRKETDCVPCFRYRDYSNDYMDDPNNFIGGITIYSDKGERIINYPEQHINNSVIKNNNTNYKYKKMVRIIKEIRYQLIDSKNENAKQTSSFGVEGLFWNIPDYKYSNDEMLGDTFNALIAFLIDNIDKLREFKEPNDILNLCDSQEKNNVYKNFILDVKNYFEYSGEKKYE
The experiment in a line: pull-down; total RNA of infected cells; EMSA: 50 mM CAPSO pH 9.4, 50 mM KCl, 5 mM Mg acetate, 1 mM DTT, 4 C 25 min, 1 uM RNA, 2% agarose in 1x TB; pull-down on cobalt resin, buffer not given in material. The following applies: protein: recombinant, tags: His6-MBP.

B1: 80-nt RNA from 80alpha-vir(cabRNA100) (structured_RNA)
RNA: AUGGUGCGUAUAUCGACAAAAAAGAAAUUACUCAGAAGAAUAUUGAGAUUAAUAUUGGUGAGUACGAUGACGAAAGUUAA
Consider B1, for which the binding result is recorded as “binds”.

B2: cabRNA PhiJ1/2 (34 nt) (structured_RNA)
RNA: GAAUGUUAUGGCAAUGCUACUAAGUCAGCUGUGC
As for B2, the binding result (hairpin (predicted)) is on record as “binds”.

B3: cabRNA PhiJ4 (49 nt) (structured_RNA)
RNA: UUCCGGAAGAUGAUUAGUCAUGUAUGAAAUACUUGAUCUAAAAAAUAAA
For the molecule B3, the binding result (hairpin (predicted)) is “binds”.

B4: 200-nt RNA from 80alpha-vir(cabRNA57) (structured_RNA)
RNA: AGAGGAGAACCUCAAGAGGCUUACAGUAAGAAAUAUGACCAUUUAAACGAUGAAGUGGAAAAAGAGGUUACUUACACAAUCACACCAACUUUUGAAGAGCGUCAGAGAUCUAUUGACCACAUACUAAAAGUUCAUGGUGCGUAUAUCGACAAAAAAGAAAUUACUCAGAAGAAUAUUGAGAUUAAUAUUGGUGAGUACGA
Regarding B4, the binding result is given as “binds”.
